Results on one molecule are retold here after publication PMC6495647, “Purification and interactions of the MucA’ and MucB proteins constituting the DNA polymerase RI”.

The target in data set [1] is T1, MucA' (plasmid pKM101 (expressed in E. coli …, UniProt Q79BK8 26-146)).
T1 sequence: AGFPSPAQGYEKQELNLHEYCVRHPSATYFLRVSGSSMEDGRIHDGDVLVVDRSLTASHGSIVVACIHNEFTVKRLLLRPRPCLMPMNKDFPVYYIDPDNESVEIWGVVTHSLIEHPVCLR
Nature of the data set: SPR; MucA' alone; SPR (BIAcore 2000, SA chip): 20 mM HEPES pH 8.0, 50 mM K-glutamate, 10 mM Mg acetate, 5% glycerol, 0.1 mM EDTA, 2 mM DTT, 0.05% Surfactant P20 (1% P20 in MucB sample); temperature not stated. The settings on record: protein: recombinant; tags: none stated (pYG8506, pET-16b based); chain copies: 2; label: 5'-biotin; single strand.

The target in data set [2] is T2, MucB (plasmid pKM101 (expressed in E. coli …, UniProt Q79BK7 1-421)).
T2 sequence: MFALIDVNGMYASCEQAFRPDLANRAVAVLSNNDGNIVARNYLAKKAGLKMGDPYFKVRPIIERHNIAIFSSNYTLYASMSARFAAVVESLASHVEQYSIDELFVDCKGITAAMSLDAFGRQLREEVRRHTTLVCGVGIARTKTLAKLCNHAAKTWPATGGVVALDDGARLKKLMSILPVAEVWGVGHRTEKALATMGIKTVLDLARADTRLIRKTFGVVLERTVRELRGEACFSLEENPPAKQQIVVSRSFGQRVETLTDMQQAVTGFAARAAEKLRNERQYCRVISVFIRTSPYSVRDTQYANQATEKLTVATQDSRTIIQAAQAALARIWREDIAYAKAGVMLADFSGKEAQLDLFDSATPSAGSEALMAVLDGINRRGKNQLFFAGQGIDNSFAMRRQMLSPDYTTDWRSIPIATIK
The data set is described as follows: SPR; MucB 0.26 uM alone; 10 mM Mg acetate; SPR (BIAcore 2000, SA chip): 20 mM HEPES pH 8.0, 50 mM K-glutamate, 10 mM Mg acetate, 5% glycerol, 0.1 mM EDTA, 2 mM DTT, 0.05% Surfactant P20 (1% P20 in MucB sample); temperature not stated. The settings on record: protein: recombinant; tags: none stated (untagged construct pYG8512); label: 5'-biotin; single strand.

B1: 73-mer ssDNA oligonucleotide (ssDNA)
DNA: GCGGCGGTTGAGTAGCTCTTCTTCCAGCACGTTTTCGCCGATAATACCGGGATCGACCACGCCATCCATTACC
Consider B1, for which the binding result is “no binding” in data set [1] and “binds” in data set [2].
